B1: 1A10 (antibody, V domains shown)
VH: QVQLVQSGAEVKKPGASVKVSCKVSGYTLNDLSMHWVRQAPGKGLEWMGGFDPAEGKIISAQKFQDRVTMTDDTSTDTAYMELSSLRSEDSAVYYCATLDFSSWFDPWGQGTLVTVSS
VL: DIQMTQSPSSVSASVGDRVTITCRASQGVSSWLAWYQQKPGMAPKLLIYAASILQSGVPSRFSGSGSGTDFTLTISSLQPEDFATYYCQQANSFPWTFGQGTKVEIK
notes: Fully human monoclonal from XenoMouse XG2kl or XG4kl mice (human IgG2 or IgG4); kappa light chain; also called 1A10K; 1A10H
B2: 3A5 (antibody, V domains shown)
VH: QVQLVQSGAEVKKPGASVKVSCKVSGYTLNDLSMHWVRQAPGKGLEWMGGFDPAEGKIISAQKFQDRVTMTDDTSTDTAYMELSSLRSEDSAVYYCATLDFSSWFDPWGQGTLVTVSS
VL: DIQMTQSPSSVSASVGDRVTITCRASQGVISWLAWYQQKPGMAPKLLIYAASILQSGVPSRFSGSGSGTDFTLTISSLQPEDFATYYCQQANSFPWTFGQGTNVEIK
notes: Fully human monoclonal from XenoMouse (human IgG2 or IgG4); kappa light chain; also called 3A5K; 3A5H
B3: 22B2 (antibody, V domains shown)
VH: EVQLVQSGAEVKEPGESLKISCKGSGYIFTSYWIAWVRQLPGKGLEWMGIIDPNDSDTRYSPSFQGQVTISADKSIHTAYLQWSSLKASDTAMYYCATHRLWLGTLPGGFYIWGQGTMVTVSS
VL: DVQMTQSPSSLSASVGDRVTITCQASQDITDYLNWYQQKPGKAPKLLIYDTSNLEAGVPSRFSGSGSGTDFTFTISSLQPEDIATYYCQQYDILPYSFGQGTDLEIK
notes: Fully human monoclonal from XenoMouse (human IgG2 or IgG4); kappa light chain; also called 22B2K; 22B2H
B4: 27G8 (antibody, V domains shown)
VH: EVQLVESGGGLVQPGGSLRLSCAASGFTFSSYWMSWVRQASGKGLEWVANIKQDGSEKYYVDSVKGRFTISRDNAKNSLYLQMNSLRAEDTAVYYCAREGGYDWNYADYYGMDVWGQGTTVTVSS
VL: QSVLTQPPSVSEAPRQRVTISCSGSNSNIGNNPVNWYQLFPGRAPKLLIYHDDLLPSGVSDRFSGSRSGTSASLAISGLQSEDETDYYCTAWDDSLNGWVFGGGTKLTVL
notes: Fully human monoclonal from XenoMouse (human IgG2 or IgG4); lambda light chain; PE-conjugated in the cynomolgus study; also called 27G8L; 27G8H
B5: 26G2 (antibody, V domains shown)
VH: QVQLVESGGGLVKPGGSLRLSCAASGFTFSDYYMSWIRQAPGKGLEWVSYISSIGSAIHYADSVKGRFTISRDNAKNSLYLQMNSLRAEDTAVYYCAREYSSGWAYFDYWGQGTLVTVSS
VL: DIQMTQSPSSVSASVGDRVTITCRASQDISSWLAWYQQKPGTAPKVLIYSASSLQNGVPSRFSGRGSGTDFALTISSLQPEDFATYYCQQADSFPWTFGRGTKVEIK
notes: Fully human monoclonal from XenoMouse (human IgG2 or IgG4); kappa light chain; also called 26G2k; 26G2K
B6: 25C9 (antibody, V domains shown)
VH: QVQLVESGGGLVKPGGSLRLSCAASGFTFNDYYMSWIRQAPGKGLEWVSYISSSGSAIHYADSVKGRFTISRDNAKNSLYLQMNSLRAEDTAVYYCAREYSSGWAYFDYWGQGTLVTVSS
VL: DIQMTQSPSSVSASVGDRVTITCRASQDISSWLAWYQRKPGKAPKVLIYSASSLQSGVPSRFSGSGSGTDFTLTISSLQPEDFATYYCQQADSFPWTFGQGTKVEIK
notes: Fully human monoclonal from XenoMouse (human IgG2 or IgG4); kappa light chain; also called 25C9k; 25C9K
B7: 19G6 (antibody, V domains shown)
VH: QVQLVESGGDLVKPGGSLRLSCAASGFTFSDYYMSWIRQAPGKGLEWISYISSSGSTMYYADSVKGRFTISRVNAKNSLYLQMNSLRAEDTAVYYCARDRSSGLVSFDYWGQGTLVTVSS
VL: DIQMTQSPSSLSASVGDRVTISCQASQDINTYLNWYQQKPGKVPKLLIYDASNLETGVPSRFSGSGSGTDFTFTISGLQPEDIATYYCQQFDNLPITFGQGTRLEIK
notes: Fully human monoclonal from XenoMouse (human IgG2 or IgG4); kappa light chain; also called 19G6K; 19G6H
B8: 26H3 (antibody, V domains shown)
VH: EVQLVQSGAEVKKPGESLKISCKGSGYSFTGYWIGWVRQMPGKGLEWMGIIYPYDSDTRYSPSFQGQVTISADKSINTAYLQWSSLKASDTAMFYCASHRLWLGEFPGPLNIWGQGTMVTVSS
VL: DIQMTQSPSSLSASVGDRVTITCQASQDISNYLNWYQQKPGKAPKLLIYDASNLETGVPSRFSGSGSGTDFTFTINSLQPEDIATYFCQQYDNLPCSFGQGTKLEIK
notes: Fully human monoclonal from XenoMouse (human IgG2 or IgG4); kappa light chain; also called 26H3K; 26H3H

Tests used:
[1] = molecular target: T1, human alpha4beta7 (human, UniProt P13612 34-1032; P26010 20-798); assay: cell-based or functional assay
T1 sequence (P13612 34-1032, chain 1 of 2): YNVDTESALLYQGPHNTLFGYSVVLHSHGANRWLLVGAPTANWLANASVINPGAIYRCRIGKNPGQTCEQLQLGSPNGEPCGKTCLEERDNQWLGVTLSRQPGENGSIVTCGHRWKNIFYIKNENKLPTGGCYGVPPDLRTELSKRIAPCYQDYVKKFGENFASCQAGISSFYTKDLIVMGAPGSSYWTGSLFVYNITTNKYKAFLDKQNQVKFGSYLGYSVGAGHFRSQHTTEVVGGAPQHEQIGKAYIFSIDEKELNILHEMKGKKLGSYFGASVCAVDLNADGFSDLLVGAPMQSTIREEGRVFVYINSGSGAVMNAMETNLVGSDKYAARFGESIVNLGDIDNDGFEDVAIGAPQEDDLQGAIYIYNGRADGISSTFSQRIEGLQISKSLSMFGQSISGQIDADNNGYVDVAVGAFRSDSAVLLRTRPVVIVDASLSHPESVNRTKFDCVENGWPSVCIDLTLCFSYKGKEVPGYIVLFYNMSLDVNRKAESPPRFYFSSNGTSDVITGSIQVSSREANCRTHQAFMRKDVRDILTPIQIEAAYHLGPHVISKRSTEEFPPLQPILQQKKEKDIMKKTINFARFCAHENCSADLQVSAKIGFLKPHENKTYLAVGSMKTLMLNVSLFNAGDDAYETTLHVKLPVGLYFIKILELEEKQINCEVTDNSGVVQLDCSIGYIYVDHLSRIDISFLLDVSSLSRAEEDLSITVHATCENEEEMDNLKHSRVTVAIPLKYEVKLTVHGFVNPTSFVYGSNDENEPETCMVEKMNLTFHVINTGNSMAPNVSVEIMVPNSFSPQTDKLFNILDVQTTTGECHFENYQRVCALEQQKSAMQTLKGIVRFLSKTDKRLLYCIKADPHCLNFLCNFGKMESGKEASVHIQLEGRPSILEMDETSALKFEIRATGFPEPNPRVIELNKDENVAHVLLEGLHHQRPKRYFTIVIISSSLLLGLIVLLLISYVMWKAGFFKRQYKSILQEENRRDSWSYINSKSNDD
T1 sequence (P26010 20-798, chain 2 of 2): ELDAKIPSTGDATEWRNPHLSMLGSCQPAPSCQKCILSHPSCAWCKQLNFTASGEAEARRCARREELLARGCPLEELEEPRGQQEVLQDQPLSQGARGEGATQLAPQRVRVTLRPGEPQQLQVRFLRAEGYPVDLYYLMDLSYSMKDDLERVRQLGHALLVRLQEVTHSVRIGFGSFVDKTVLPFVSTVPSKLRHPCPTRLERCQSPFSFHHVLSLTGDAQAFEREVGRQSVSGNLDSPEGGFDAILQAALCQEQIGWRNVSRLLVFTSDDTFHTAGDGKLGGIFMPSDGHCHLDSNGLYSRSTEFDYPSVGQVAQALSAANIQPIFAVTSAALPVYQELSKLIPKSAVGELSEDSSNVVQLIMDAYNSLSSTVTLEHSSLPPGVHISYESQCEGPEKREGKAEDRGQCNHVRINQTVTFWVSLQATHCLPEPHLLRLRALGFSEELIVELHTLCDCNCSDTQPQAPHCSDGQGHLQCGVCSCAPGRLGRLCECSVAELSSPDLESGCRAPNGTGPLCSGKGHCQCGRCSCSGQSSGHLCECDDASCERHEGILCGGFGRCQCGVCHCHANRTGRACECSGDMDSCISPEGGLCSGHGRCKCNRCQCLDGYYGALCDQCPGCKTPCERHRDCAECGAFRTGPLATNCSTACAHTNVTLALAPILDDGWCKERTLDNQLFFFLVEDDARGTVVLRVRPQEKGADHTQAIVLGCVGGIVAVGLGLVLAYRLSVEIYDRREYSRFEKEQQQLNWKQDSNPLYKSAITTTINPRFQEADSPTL

[2] = molecular target: a4(Q878R)b7 (human) (UniProt P13612); assay: FACS on transfected 293 cells, 1 microG/ml, PE anti-human IgG
Sequence of a4(Q878R)b7 (human) (P13612 34-1032, chain 1 of 2): as the sequence (P13612 34-1032, chain 1 of 2) above
Sequence of a4(Q878R)b7 (human) (P26010 20-798, chain 2 of 2, further chain): as the sequence (P26010 20-798, chain 2 of 2) above

[3] = molecular target: a4(V824A)b7 (human) (UniProt P13612); assay: as above
Sequence of a4(V824A)b7 (human) (P13612 34-1032 V824A, chain 1 of 2): as the sequence (P13612 34-1032, chain 1 of 2) above, with V791A counted along it
Sequence of a4(V824A)b7 (human) (P26010 20-798, chain 2 of 2, further chain): as the sequence (P26010 20-798, chain 2 of 2) above

[4] = molecular target: a4b7(E97V) (human) (UniProt P13612); assay: as above
Sequence of a4b7(E97V) (human) (P13612 34-1032, chain 1 of 2): as the sequence (P13612 34-1032, chain 1 of 2) above
Sequence of a4b7(E97V) (human) (P26010 20-798 E97V, chain 2 of 2, further chain): as the sequence (P26010 20-798, chain 2 of 2) above, with E78V counted along it

[5] = molecular target: a4b7(G629S) (human) (UniProt P13612); assay: as above
Sequence of a4b7(G629S) (human) (P13612 34-1032, chain 1 of 2): as the sequence (P13612 34-1032, chain 1 of 2) above
Sequence of a4b7(G629S) (human) (P26010 20-798 G629S, chain 2 of 2, further chain): as the sequence (P26010 20-798, chain 2 of 2) above, with G610S counted along it

[6] = molecular target: a4b7(R213S) (human) (UniProt P13612); assay: as above
Sequence of a4b7(R213S) (human) (P13612 34-1032, chain 1 of 2): as the sequence (P13612 34-1032, chain 1 of 2) above
Sequence of a4b7(R213S) (human) (P26010 20-798 R213S, chain 2 of 2, further chain): as the sequence (P26010 20-798, chain 2 of 2) above, with R194S counted along it

[7] = molecular target: T1, human alpha4beta7; assay: as above
Text: Point mutant constructs representing amino acid altering SNPs (a4b7(E97V); a4b7(R213S); a4b7(G629S; a4(V824A)b7; a4(Q878R)b7) in the extracellular domains of both alpha4 and beta7 were generated. Each point mutant construct was transfected to 293 cells along with the wild-type partner expression construct. Transfected 293 cells were first stained with 1 microG/ml of human IgG or anti-alpha4beta7 antibody, washed with PBS, and the stained with phycoerytherin conjugated secondary antibody goat-anti human IgG. After washing with PBS, cells were analyzed by fluorescence activated cell sorting, for example, with a FACSCalibur™ (BD Biosciences, San Jose Calif.).

[8] = molecular target: T1, human alpha4beta7; assay: FACS, biotinylated antibody on human CD4+CD45RA- memory T cells
Method: Human peripheral blood mononuclear cells (PBMC; fresh or frozen and thawed, for example in phosphate buffered saline with 2% FBS) are washed and resuspended in HEPES buffer (30 mM HEPES+[…]) with 1% BSA, with or without 1 mM MnCl₂ (depending on the experiment; Mn²⁺ is necessary for MAdCAM-1 binding) and plated into 96 well plates (10⁶cells/well). Cells are incubated with 10 microG/ml human IgG for 30 minutes on ice to block nonspecific binding. Cells are then incubated with serial dilutions of biotinylated anti-alpha4beta7 antibodies in 96 well plates for one hour on ice, followed by addition of 1:100 dilution of streptavidin-phycoerythrin (PE; Jackson ImmunoResearch Laboratories Inc., West Grove, Pa.), 4 microL CD3-Pacific Blue, CD4-PerCP-Cy5.5 and CD45RA-fluorescein isothiocyanate (FITC) (BD Biosciences, San Jose Calif.) for a final volume of 100 microL, and incubated for another hour on ice. Cells were washed twice with HEPES buffer (with or without MnCl₂, correspondingly) and then fixed in 200 microL HEPES buffer plus 0.5% paraformaldehyde (again, with or without MnCl₂, correspondingly). The percentage of positive alpha4beta7 antibody binding CD4+CD45RA-memory T cells is determined using a fluorescence activated cell sorter (FACS), for example, a BD™ LSR II benchtop flow cytometer (BD Biosciences, San Jose Calif.).

[9] = molecular target: T1, human alpha4beta7; assay: FACS competition, blocks biotinylated MAdCAM-1-Fc binding to human CD4+CD45RA- memory T cells
Method: PBMC (fresh or frozen as described previously) are washed and resuspended in HEPES buffer (30 mM HEPES+[…]) with 1% BSA and 1 mM MnCl. to a final concentration of 10⁷cells/ml. Cells are blocked as described previously; after blocking, cells are incubated with a serial dilution of anti-alpha4beta7 antibody (or appropriate control) in 96 well plates for 30 minutes on ice, and then with 0.3 microG/ml biotinylated MAdCAM-1-Fc protein for another one hour.
After two washes in HEPES buffer with 1 mM MnCl, cells are treated with 1:100 dilution of streptavidin-PE, 4 microL CD3-Pacific Blue, CD4-PerCP-Cy5.5 and CD45RA-FITC as described previously, in a final volume of 100 microL. After one hour incubation on ice, cells are washed twice with HEPES buffer with 1 mM MnCl and then fixed in 200 microL buffer plus 0.5% paraformaldehyde. The percentage of positive MAdCAM-1-Fc binding CD4+CD45RA-memory T cells is determined by fluorescence activated cell sorter (FACS) analysis, as described previously.

Binder	HUT78 Adhesion IC50 [1] [ng/mL]	fluorescence staining intensity (geometric mean) [2]	fluorescence staining intensity (geometric mean) [3]	fluorescence staining intensity (geometric mean) [4]	fluorescence staining intensity (geometric mean) [5]	fluorescence staining intensity (geometric mean) [6]	fluorescence staining intensity (geometric mean) [7]	EC50 [8] [ng/mL]	IC50 [9] [ng/mL]
B1	6.1	70	102	135	80	31	122	4.9	6.2
B2	7.5	71	110	135	80	31	124	5.6	6.2
B3	3.7	58	85	108	65	58	97	5.1	23.2
B4	14.9	58	88	116	68	59	102	6.3	8.7
B5	6.9	58	86	113	64	38	99	32.6	99.6
B6	13.7	51	77	106	59	33	96	–	77.6
B7	12.2	46	67	108	59	46	94	32.9	103
B8	8.9	–	–	–	–	–	93	9.3	14.1
